The target of experiment [1] is T1, human parathyroid hormone receptor (PTHR) (human, UniProt Q03431 27-593).
T1 construct: Assayed in membranes of HKRK-B7 cells or of transiently transfected COS-7 cells, or on intact HKRK-B7/HKRK-B64/COS-7 cells; RG = co-transfected with negative-dominant Galpha-s; R0 = receptor alone plus GTPgammaS; also called hPTHR; human PTH receptor
T1 sequence: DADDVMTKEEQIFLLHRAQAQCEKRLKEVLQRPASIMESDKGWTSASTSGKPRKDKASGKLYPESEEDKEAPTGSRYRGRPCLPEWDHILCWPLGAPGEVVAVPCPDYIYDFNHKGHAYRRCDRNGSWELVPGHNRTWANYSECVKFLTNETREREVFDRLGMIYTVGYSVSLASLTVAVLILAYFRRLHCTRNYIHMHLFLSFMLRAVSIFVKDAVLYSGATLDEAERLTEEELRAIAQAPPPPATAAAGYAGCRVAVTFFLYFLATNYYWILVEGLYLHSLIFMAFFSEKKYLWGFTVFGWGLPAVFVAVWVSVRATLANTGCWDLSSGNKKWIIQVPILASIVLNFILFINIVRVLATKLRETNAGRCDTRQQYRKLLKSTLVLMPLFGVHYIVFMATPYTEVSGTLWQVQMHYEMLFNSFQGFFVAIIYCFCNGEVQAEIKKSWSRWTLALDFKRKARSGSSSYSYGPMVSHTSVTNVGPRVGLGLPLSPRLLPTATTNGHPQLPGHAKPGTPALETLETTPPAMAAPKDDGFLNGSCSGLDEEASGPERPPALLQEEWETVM
The experiment is described as follows: competition vs 125I-PTH(1-34) + GTPgammaS, COS-7 membranes hPTHR (R0). As for the experimental part:
(§1) Radioligand dissociation. These studies were performed as bulk reactions in 15 mL round-bottom polystyrene snap-cap tubes (Falcon) (total reaction volume=5.0 ml). Membranes and radioligand were pre-incubated for 90 minutes to allow complex formation; the dissociation phase was then initiated by the addition of an excess of the unlabeled analog of the radioligand (5×10⁻⁷ M final concentration), with or without GTPγS (5×10⁻⁵ M). Immediately prior to this addition (t=0), and at successive time-points thereafter, 0.2 ml aliquots (30,000 cpm) were withdrawn and immediately processed by vacuum filtration, as described above. Non-specific binding was determined in parallel reaction tubes containing the unlabeled analog of the radioligand (5×10⁻⁷ M) in both the pre-incubation and dissociation phases. The specifically bound radioactivity at each time point was calculated as a percent of the radioactivity specifically bound at t=0. Equilibrium competition binding and GTPγS inhibition. […] Membranes, tracer radioligand, and various concentrations of unlabeled ligands and/or GTPγS were incubated in the wells for 90 minutes, following which, the reaction plates were processed by rapid vacuum filtration to separate bound from free radioligand, as described above. […] For both radioligands, the non-specific binding was determined in reactions containing a saturating concentration of the unlabeled analog of the radioligand. The specifically bound radioactivity was calculated as a percent of the radioactivity specifically bound in the absence of a competing ligand or GTPγS.

Experiment [2] deals with T1, human parathyroid hormone receptor …. The experiment is described as follows: ratio of R0 IC50 to RG IC50, hPTHR.
Experiment [3] shares this target. Nature of the experiment: competition vs 125I-[Aib1,3,M]PTH(1-15), COS-7 membranes hPTHR + GsND (RG). As to the method: as §1
For experiment [4] the target is unchanged. The experiment is described as follows: competition radioligand binding, human PIR RG. As to the method:
(§2) Binding Studies. Binding studies were performed using cell membranes as described (Dean et al., Mol Endocrinol 20(4):931-43 (2006)). […] Reactions contained a total membrane protein concentration of 20 to 100 μg/mL, and a total radioactivity concentration of approximately 150,000 cpm/ml. Unlabeled peptide ligands and/or GTPγS (Sigma-Aldrich Inc. St. Louis, Mo.) were added to the reactions as indicated. At the end of the reaction, bound and free radioligand were separated by vacuum filtration using a 96-well vacuum filter plate and vacuum filter apparatus (Multi-Screen system with Durapore HV, […] filters; Millipore Corp., Milford, Mass.); the air-dried filters were then detached from the plate and counted for gamma radioactivity using a gamma counter.
(§3) To assess the capacities of various unlabeled peptide ligands to bind to the G protein-uncoupled and G protein-coupled PTHR conformations (R⁰ and RG, respectively), membranes were prepared from transiently transfected COS-7 cells and the following assay conditions.

For experiment [5] the target is unchanged. Nature of the experiment: competition radioligand binding, hPTHR R0 conformation. As for the experimental part: as §2, §3
Experiment [6] has the same target. Nature of the experiment: competition radioligand binding, human PIR R0. As to the method: as §2, §3
The target is the same in experiment [7]. The experiment is described as follows: screen, binding to human PIR RG relative to parent PTHrP(1-28)NH; footnote not given.
Experiment [8] has the same target. The experiment is described as follows: ratio of R0 IC50 to RG IC50, hPTHR. The source holds these as a separate data set.
Experiment [9] has the same target. Nature of the experiment: competition radioligand binding, hPTHR RG conformation. As for the experimental part: as §2, §3
The target is the same in experiment [10]. Nature of the experiment: screen, binding to human PIR R0 relative to parent PTHrP(1-28)NH; footnote not given.
The target in experiment [11] is T2, rat parathyroid hormone receptor (PTHR) (rat, UniProt P25961 27-591).
T2 sequence: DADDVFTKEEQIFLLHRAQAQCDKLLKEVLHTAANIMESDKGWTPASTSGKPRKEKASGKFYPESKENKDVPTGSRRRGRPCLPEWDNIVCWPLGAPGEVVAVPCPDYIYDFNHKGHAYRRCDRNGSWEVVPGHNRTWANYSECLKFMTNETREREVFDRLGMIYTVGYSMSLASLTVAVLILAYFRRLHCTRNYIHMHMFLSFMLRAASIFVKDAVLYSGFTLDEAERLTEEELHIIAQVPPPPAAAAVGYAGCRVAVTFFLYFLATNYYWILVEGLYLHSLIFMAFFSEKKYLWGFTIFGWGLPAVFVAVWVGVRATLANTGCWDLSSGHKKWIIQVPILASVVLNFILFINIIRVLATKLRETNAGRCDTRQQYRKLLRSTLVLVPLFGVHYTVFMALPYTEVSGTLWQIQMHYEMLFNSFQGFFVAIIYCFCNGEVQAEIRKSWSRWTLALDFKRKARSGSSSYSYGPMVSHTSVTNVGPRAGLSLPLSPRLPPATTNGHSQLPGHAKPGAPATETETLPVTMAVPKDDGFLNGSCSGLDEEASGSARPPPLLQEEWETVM
Nature of the experiment: cell-based or functional assay.

The target in experiment [12] is T1, human parathyroid hormone receptor …. Nature of the experiment: competition radioligand binding, human PTH1 receptor RG. As to the method:
as §2, §3

Experiment [13] shares this target. Nature of the experiment: ratio of R0 IC50 to RG IC50, human PTH1 receptor.
Experiment [14] shares this target. Nature of the experiment: competition radioligand binding, human PTH1 receptor R0. As to the method: as §2, §3
Experiment [15] has the same target. Nature of the experiment: cell-based or functional assay.
The target is the same in experiment [16]. Nature of the experiment: cell-based or functional assay. The source holds these as a separate data set.

Square brackets hold non-standard residues; d marks the D form. Ends that are not written are not given here. hArg = N=C(N)NCCCC[C@H](N)C(=O)O; Nle = CCCC[C@H](N)C(=O)O; Aib = CC(C)(N)C(=O)O

B1: [Aib^1,3,Nle^8,Gln^10,homoarginine^11,Ala^12,Trp^14,Tyr^15]rPTH(1-15)NH2 (peptide)
peptide: [Aib]V[Aib]EIQL[Nle]HQ[hArg]AKWY-NH2
modifications: N-terminus assumed
SMILES: CCCC[C@H](NC(=O)[C@H](CC(C)C)NC(=O)[C@H](CCC(N)=O)NC(=O)[C@@H](NC(=O)[C@H](CCC(=O)O)NC(=O)C(C)(C)NC(=O)[C@@H](NC(=O)C(C)(C)N)C(C)C)[C@@H](C)CC)C(=O)N[C@@H](Cc1c[nH]cn1)C(=O)N[C@@H](CCC(N)=O)C(=O)N[C@@H](CCCCNC(=N)N)C(=O)N[C@@H](C)C(=O)N[C@@H](CCCCN)C(=O)N[C@@H](Cc1c[nH]c2ccccc12)C(=O)N[C@@H](Cc1ccc(O)cc1)C(N)=O
notes: also called [Aib^1,3,M]rPTH(1-15)NH2; [Aib^1,3,M]PTH(1-15)
Take B1: the IC50 was determined as 1030 nM in experiment [1] and 0.74 nM in experiment [3]. Moreover, the “R0:RG” value in [2] was 1400.
With AVSEHQLLHDKGKSIQDARRRAFLHKLI-NH2 [A18,22,K26-PTHrP(1-28)NH], the IC50 in experiment [4] was determined as 0.1 nM; in experiment [5], 1820 nM; in experiment [6], 1820 nM; in [9], 0.1 nM. In experiment [7], the “human PIR RG (% parent)” value worked out at 193 % parent. For the same molecule, the R0/RG selectivity in [8] was 18100. Moreover, in experiment [10], the “human PIR R0 (% parent)” value turned out to be 178 % parent.
For AVSEHQLLHDKGKSIQDERRRAFLHKLI-NH2 [E18,A22,K26-PTHrP(1-28)NH], the IC50 in experiment [4] was found to be 0.24 nM; in experiment [5], 9240 nM; in [6], 9240 nM; in experiment [9], 0.24 nM. In addition, the “human PIR RG (% parent)” value in experiment [7] amounted to 145 % parent. Besides, in [8], the R0/RG selectivity stood at 38300. Besides, the “human PIR R0 (% parent)” value in experiment [10] came out at 68.8 % parent.
As for AVSEHQLLHDKGKSIQDERRRAFLLKLI-NH2 (also called EALK-PTHrP(1-28)) [E18,A22,L25,K26-PTHrP(1-28)NH], the IC50 in experiment [4] is 0.1 nM; in experiment [5], 1740 nM; in experiment [6] it was 1740 nM; in experiment [9], 0.1 nM. Moreover, the R0/RG selectivity in [8] turned out to be 18300.

B2: rPTH(1-34)NH2 (peptide)
peptide: AVSEIQLMHNLGKHLASVERMQWLRKKLQDVHNF-NH2
notes: also called r(rat)PTH(1-34)NH2; rat-PTH(1-34)
Regarding B2, the “cAMP in ROS17/2.8 cells, EC50” value in experiment [11] was 0.021 nM. Also, the IC50 in experiment [1] came out at 2.3 nM; in experiment [3] it was 0.34 nM. Further, the “R0:RG” value in experiment [2] came to 7.
As for AVSEHQLMHNLGKHLASVERMQWLRKKLQDVHNF-NH2 [[His^5]rPTH(1-34)NH2], the IC50 in experiment [1] is 26 nM; in experiment [3], 0.19 nM. Moreover, in experiment [2], the “R0:RG” value was 138.
Take AVAEIQLMHQRAKWLNSMRAVEWLRKKLQDVHNF-OH (Mc = A1,3,12,Q10,R11,W14,R19) [A20,Mc-PTH(1-34)OH]: the results for the IC50 in [12] and in experiment [14] were 0.4 nM and 31.9 nM, respectively. Further, the R0/RG ratio in experiment [13] came to 80.
As for AVAEIQLMHQRAKWLNSMRRVEFLRKKLQDVHNF-OH (Mc = A1,3,12,Q10,R11,W14,R19) [F23,Mc-PTH(1-34)OH], the IC50 came to 0.23 nM in experiment [12] and 1.2 nM in [14]. In experiment [13], the R0/RG ratio is 5.

B3: [A1,3,23,Q10,R11]-PTH(1-34)OH (peptide)
peptide: AVAEIQLMHQRGKHLNSMERVEALRKKLQDVHNF-OH
notes: also called [A^1,A^3,A^23,Q^10,R^11]-PTH(1-34)OH; [A1,3,23,Q10,R11]-hPTH(1-34)
B3 showed an IC50 in experiment [14] of 197 nM. Besides, in experiment [15], the “cAMP in HKRK-B7 cells, EC50” value was found to be 1.76 nM and the “cAMP in HKRK-B7 cells, Max” value is 63.8 pm/well.

B4: [His^5,Nle^8,21,Tyr^34]rPTH(1-34)NH2 (peptide)
peptide: AVSEHQL[Nle]HNLGKHLASVER[Nle]QWLRKKLQDVHNY-NH2
modifications: N-terminus assumed
SMILES: CCCC[C@H](NC(=O)[C@H](CC(C)C)NC(=O)[C@H](CCC(N)=O)NC(=O)[C@H](Cc1c[nH]cn1)NC(=O)[C@H](CCC(=O)O)NC(=O)[C@H](CO)NC(=O)[C@@H](NC(=O)[C@H](C)N)C(C)C)C(=O)N[C@@H](Cc1c[nH]cn1)C(=O)N[C@@H](CC(N)=O)C(=O)N[C@@H](CC(C)C)C(=O)NCC(=O)N[C@@H](CCCCN)C(=O)N[C@@H](Cc1c[nH]cn1)C(=O)N[C@@H](CC(C)C)C(=O)N[C@@H](C)C(=O)N[C@@H](CO)C(=O)N[C@H](C(=O)N[C@@H](CCC(=O)O)C(=O)N[C@@H](CCCNC(=N)N)C(=O)N[C@@H](CCCC)C(=O)N[C@@H](CCC(N)=O)C(=O)N[C@@H](Cc1c[nH]c2ccccc12)C(=O)N[C@@H](CC(C)C)C(=O)N[C@@H](CCCNC(=N)N)C(=O)N[C@@H](CCCCN)C(=O)N[C@@H](CCCCN)C(=O)N[C@@H](CC(C)C)C(=O)N[C@@H](CCC(N)=O)C(=O)N[C@@H](CC(=O)O)C(=O)N[C@H](C(=O)N[C@@H](Cc1c[nH]cn1)C(=O)N[C@@H](CC(N)=O)C(=O)N[C@@H](Cc1ccc(O)cc1)C(N)=O)C(C)C)C(C)C
notes: also called His^5-PTH(1-34); H^5-PTH(1-34)
Turning to B4, in experiment [1], the IC50 is 71 nM. Also, the “R0:RG” value in [2] amounted to 753. Besides, the IC50 in [3] stood at 0.094 nM. Also, in experiment [16], the “IP in COS-7/hPTHR cells, EC50” value turned out to be 30 nM; the “IP in COS-7/hPTHR cells, Emax” value was determined as 2230 cpm/well; the “cAMP in HKRK-B64 cells, EC50” value was determined as 2.7 nM; the “cAMP in HKRK-B64 cells, Emax” value was 59 picomole/well.

The record behind these values is patent publication US20110172153A1 (GENERAL HOSPITAL, published 2011).
